Measured values as given in the supplement of paper PMC9112550, “Optimization of the antimicrobial peptide Bac7 by deep mutational scanning” (BMC Biology, 2022).

System: Escherichia coli TOP10
Test: shrunken log2 fold change of peptide-encoding DNA abundance (4.5 h post-induction vs induction); higher = less antimicrobial activity (less host growth inhibition)
Conditions: time post-induction: 4.5 h; library: site-saturation at positions 5, 18, 19, 20
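Also: peptides expressed intracellularly from a pBAD plasmid library in pooled LB shake-flask culture, induced with 0.3% L-arabinose, DNA abundance read by NGS, three biological replicates, DESeq2 with apeglm shrinkage.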

## RRIRDRPPRLPRPRPRPCGDPRP
  shrunken log2 fold change: 0.0915

## RRIRDRPPRLPRPRPRPSERPRP
  shrunken log2 fold change: 0.0188

## RRIRARPPRLPRPRPRPVSYPRP
  shrunken log2 fold change: -0.133

## RRIRDRPPRLPRPRPRPHVMPRP
  shrunken log2 fold change: -0.0796

## RRIRRRPPRLPRPRPRPIYDPRP
  shrunken log2 fold change: -0.0515

## RRIRARPPRLPRPRPRPRIQPRP
  shrunken log2 fold change: 0.505

## RRIRPRPPRLPRPRPRPAAMPRP
  shrunken log2 fold change: 0.302

## RRIRPRPPRLPRPRPRPDGSPRP
  shrunken log2 fold change: -0.00717

## RRIRWRPPRLPRPRPRPGEIPRP
  shrunken log2 fold change: 0.889

## RRIRERPPRLPRPRPRPEMYPRP
  shrunken log2 fold change: -0.00136

## RRIRERPPRLPRPRPRPMKFPRP
  shrunken log2 fold change: -0.0657

## RRIRSRPPRLPRPRPRPICVPRP
  shrunken log2 fold change: -0.111

## RRIRDRPPRLPRPRPRPLQIPRP
  shrunken log2 fold change: -0.21

## RRIRKRPPRLPRPRPRPPEGPRP
  shrunken log2 fold change: 1.08

## RRIRKRPPRLPRPRPRPRWSPRP
  shrunken log2 fold change: 0.559

## RRIRARPPRLPRPRPRPKVIPRP
  shrunken log2 fold change: 0.116

## RRIRPRPPRLPRPRPRPQWIPRP
  shrunken log2 fold change: 0.0662

## RRIRCRPPRLPRPRPRPNCFPRP
  shrunken log2 fold change: -0.0988

## RRIRYRPPRLPRPRPRPWTPPRP
  shrunken log2 fold change: -0.0576

## RRIRKRPPRLPRPRPRPGNEPRP
  shrunken log2 fold change: 0.204

## RRIRRRPPRLPRPRPRPWAPPRP
  shrunken log2 fold change: 0.043

## RRIRMRPPRLPRPRPRPWYMPRP
  shrunken log2 fold change: -0.147

## RRIRYRPPRLPRPRPRPCLFPRP
  shrunken log2 fold change: -0.931

## RRIRVRPPRLPRPRPRPMRWPRP
  shrunken log2 fold change: 0.0506

## RRIRKRPPRLPRPRPRPIQFPRP
  shrunken log2 fold change: 0.0779

## RRIRKRPPRLPRPRPRPGRGPRP
  shrunken log2 fold change: 0.593

## RRIRHRPPRLPRPRPRPYVHPRP
  shrunken log2 fold change: -0.312

## RRIRLRPPRLPRPRPRPTTKPRP
  shrunken log2 fold change: 0.155

## RRIRARPPRLPRPRPRPRQHPRP
  shrunken log2 fold change: 0.278

## RRIRSRPPRLPRPRPRPITVPRP
  shrunken log2 fold change: -0.132

## RRIRGRPPRLPRPRPRPPEEPRP
  shrunken log2 fold change: 1.5

## RRIRFRPPRLPRPRPRPDAHPRP
  shrunken log2 fold change: -0.0702

## RRIRARPPRLPRPRPRPFYTPRP
  shrunken log2 fold change: -0.685

## RRIRYRPPRLPRPRPRPDIAPRP
  shrunken log2 fold change: -0.0285

## RRIRERPPRLPRPRPRPDSHPRP
  shrunken log2 fold change: -0.6

## RRIRERPPRLPRPRPRPFMFPRP
  shrunken log2 fold change: -0.531

## RRIRPRPPRLPRPRPRPSITPRP
  shrunken log2 fold change: -0.401

## RRIRNRPPRLPRPRPRPYFFPRP
  shrunken log2 fold change: -0.482

## RRIRARPPRLPRPRPRPCCDPRP
  shrunken log2 fold change: 0.404

## RRIRGRPPRLPRPRPRPEFGPRP
  shrunken log2 fold change: 0.797

## RRIRYRPPRLPRPRPRPYSGPRP
  shrunken log2 fold change: -1

## RRIRIRPPRLPRPRPRPGNQPRP
  shrunken log2 fold change: -0.839

## RRIRMRPPRLPRPRPRPSSMPRP
  shrunken log2 fold change: -0.0815

## RRIRERPPRLPRPRPRPTYLPRP
  shrunken log2 fold change: -0.178

## RRIRRRPPRLPRPRPRPGAGPRP
  shrunken log2 fold change: 0.475

## RRIRARPPRLPRPRPRPLFKPRP
  shrunken log2 fold change: 0.117

## RRIRPRPPRLPRPRPRPVRQPRP
  shrunken log2 fold change: 0.219

## RRIRQRPPRLPRPRPRPGSVPRP
  shrunken log2 fold change: 0.241

## RRIRNRPPRLPRPRPRPVGMPRP
  shrunken log2 fold change: 0.23

## RRIRRRPPRLPRPRPRPRVRPRP
  shrunken log2 fold change: 0.649

## RRIRLRPPRLPRPRPRPKPWPRP
  shrunken log2 fold change: 0.387

## RRIRDRPPRLPRPRPRPIQLPRP
  shrunken log2 fold change: 0.0401

## RRIRMRPPRLPRPRPRPWDSPRP
  shrunken log2 fold change: -0.152

## RRIRVRPPRLPRPRPRPWYQPRP
  shrunken log2 fold change: -0.197

## RRIRWRPPRLPRPRPRPHNSPRP
  shrunken log2 fold change: -0.394

## RRIRLRPPRLPRPRPRPDKNPRP
  shrunken log2 fold change: -0.0881

## RRIRVRPPRLPRPRPRPGRMPRP
  shrunken log2 fold change: 0.172

## RRIRVRPPRLPRPRPRPPPRPRP
  shrunken log2 fold change: 1.03

## RRIRCRPPRLPRPRPRPKKIPRP
  shrunken log2 fold change: 0.00547

## RRIRMRPPRLPRPRPRPHLDPRP
  shrunken log2 fold change: 0.108

## RRIRSRPPRLPRPRPRPVPNPRP
  shrunken log2 fold change: 0.105

## RRIRVRPPRLPRPRPRPILTPRP
  shrunken log2 fold change: -0.443

## RRIRWRPPRLPRPRPRPSQNPRP
  shrunken log2 fold change: 0.236

## RRIRIRPPRLPRPRPRPNKPPRP
  shrunken log2 fold change: -0.119

## RRIRARPPRLPRPRPRPSQMPRP
  shrunken log2 fold change: 0.0732

## RRIRWRPPRLPRPRPRPMCQPRP
  shrunken log2 fold change: 0.132

## RRIRERPPRLPRPRPRPHPPPRP
  shrunken log2 fold change: 0.16

## RRIRWRPPRLPRPRPRPMCDPRP
  shrunken log2 fold change: 0.116

## RRIRCRPPRLPRPRPRPLMAPRP
  shrunken log2 fold change: 0.18

## RRIRLRPPRLPRPRPRPYFRPRP
  shrunken log2 fold change: -0.78

## RRIRHRPPRLPRPRPRPQWQPRP
  shrunken log2 fold change: -0.0687

## RRIRTRPPRLPRPRPRPFREPRP
  shrunken log2 fold change: -0.0376

## RRIRVRPPRLPRPRPRPCSRPRP
  shrunken log2 fold change: -0.0712

## RRIRCRPPRLPRPRPRPWDIPRP
  shrunken log2 fold change: -0.179

## RRIRVRPPRLPRPRPRPRFLPRP
  shrunken log2 fold change: -0.247

## RRIRDRPPRLPRPRPRPDVQPRP
  shrunken log2 fold change: 0.0508

## RRIRRRPPRLPRPRPRPPHNPRP
  shrunken log2 fold change: 1.21

## RRIRVRPPRLPRPRPRPNTWPRP
  shrunken log2 fold change: -0.197

## RRIRYRPPRLPRPRPRPNIFPRP
  shrunken log2 fold change: -0.42

## RRIRCRPPRLPRPRPRPVELPRP
  shrunken log2 fold change: 0.103

## RRIRARPPRLPRPRPRPDVIPRP
  shrunken log2 fold change: 0.0534

## RRIRLRPPRLPRPRPRPWKHPRP
  shrunken log2 fold change: -0.0177

## RRIRVRPPRLPRPRPRPFEFPRP
  shrunken log2 fold change: -0.284

## RRIRGRPPRLPRPRPRPGMIPRP
  shrunken log2 fold change: 0.309

## RRIRCRPPRLPRPRPRPSSNPRP
  shrunken log2 fold change: -0.715

## RRIRQRPPRLPRPRPRPLGSPRP
  shrunken log2 fold change: 0.0483

## RRIRCRPPRLPRPRPRPMIEPRP
  shrunken log2 fold change: -0.117

## RRIRRRPPRLPRPRPRPEVWPRP
  shrunken log2 fold change: 1.74

## RRIRIRPPRLPRPRPRPWPFPRP
  shrunken log2 fold change: -0.259

## RRIRGRPPRLPRPRPRPIPWPRP
  shrunken log2 fold change: 0.361

## RRIRARPPRLPRPRPRPKGFPRP
  shrunken log2 fold change: 0.102

## RRIRTRPPRLPRPRPRPVWTPRP
  shrunken log2 fold change: 0.03

## RRIRYRPPRLPRPRPRPGVDPRP
  shrunken log2 fold change: -0.0308

## RRIRDRPPRLPRPRPRPIDTPRP
  shrunken log2 fold change: -0.3

## RRIRDRPPRLPRPRPRPPSMPRP
  shrunken log2 fold change: -0.147

## RRIRMRPPRLPRPRPRPNGYPRP
  shrunken log2 fold change: 0.0495

## RRIRMRPPRLPRPRPRPNEAPRP
  shrunken log2 fold change: 0.326

## RRIRKRPPRLPRPRPRPPEPPRP
  shrunken log2 fold change: 0.842

## RRIRYRPPRLPRPRPRPIQMPRP
  shrunken log2 fold change: -0.0163

## RRIRHRPPRLPRPRPRPYPQPRP
  shrunken log2 fold change: -0.546

## RRIRMRPPRLPRPRPRPTEAPRP
  shrunken log2 fold change: 0.0796

## RRIRIRPPRLPRPRPRPGWEPRP
  shrunken log2 fold change: 0.0557

## RRIRYRPPRLPRPRPRPVDFPRP
  shrunken log2 fold change: -0.226

## RRIRIRPPRLPRPRPRPQRQPRP
  shrunken log2 fold change: 0.098

## RRIRNRPPRLPRPRPRPQGQPRP
  shrunken log2 fold change: 0.225

## RRIRDRPPRLPRPRPRPFWRPRP
  shrunken log2 fold change: 0.0187

## RRIRTRPPRLPRPRPRPQSVPRP
  shrunken log2 fold change: -0.104

## RRIRLRPPRLPRPRPRPRNFPRP
  shrunken log2 fold change: -0.112

## RRIRHRPPRLPRPRPRPNTVPRP
  shrunken log2 fold change: 0.0932

## RRIRERPPRLPRPRPRPKWDPRP
  shrunken log2 fold change: 0.953

## RRIRVRPPRLPRPRPRPSTQPRP
  shrunken log2 fold change: -0.0637

## RRIRHRPPRLPRPRPRPPLCPRP
  shrunken log2 fold change: 0.0792

## RRIRDRPPRLPRPRPRPPPEPRP
  shrunken log2 fold change: 0.48

## RRIRYRPPRLPRPRPRPMFGPRP
  shrunken log2 fold change: -0.143

## RRIRFRPPRLPRPRPRPWKRPRP
  shrunken log2 fold change: -0.0222

## RRIRPRPPRLPRPRPRPYPLPRP
  shrunken log2 fold change: -0.861

## RRIRGRPPRLPRPRPRPQIAPRP
  shrunken log2 fold change: 1.94

## RRIRNRPPRLPRPRPRPKHGPRP
  shrunken log2 fold change: 0.0401

## RRIRERPPRLPRPRPRPVQWPRP
  shrunken log2 fold change: 0.149

## RRIRFRPPRLPRPRPRPGDYPRP
  shrunken log2 fold change: -0.406

## RRIRQRPPRLPRPRPRPDFVPRP
  shrunken log2 fold change: 0.0112

## RRIRWRPPRLPRPRPRPGPVPRP
  shrunken log2 fold change: 0.423

## RRIRHRPPRLPRPRPRPDDQPRP
  shrunken log2 fold change: -0.0481

## RRIRDRPPRLPRPRPRPIFWPRP
  shrunken log2 fold change: 0.0145

## RRIRGRPPRLPRPRPRPLKLPRP
  shrunken log2 fold change: 0.164

## RRIRHRPPRLPRPRPRPAQDPRP
  shrunken log2 fold change: 0.0349

## RRIRVRPPRLPRPRPRPINWPRP
  shrunken log2 fold change: -0.147

## RRIRTRPPRLPRPRPRPFDSPRP
  shrunken log2 fold change: -0.258

## RRIRLRPPRLPRPRPRPLMYPRP
  shrunken log2 fold change: -0.327

## RRIRCRPPRLPRPRPRPSKWPRP
  shrunken log2 fold change: -0.0391

## RRIRQRPPRLPRPRPRPPNRPRP
  shrunken log2 fold change: -0.131

## RRIRARPPRLPRPRPRPQPQPRP
  shrunken log2 fold change: 0.436

## RRIRMRPPRLPRPRPRPEKCPRP
  shrunken log2 fold change: -0.0105

## RRIRTRPPRLPRPRPRPCIWPRP
  shrunken log2 fold change: -0.0258

## RRIRDRPPRLPRPRPRPCWDPRP
  shrunken log2 fold change: 0.392

## RRIRKRPPRLPRPRPRPRCEPRP
  shrunken log2 fold change: 0.568

## RRIRRRPPRLPRPRPRPRIAPRP
  shrunken log2 fold change: 0.652

## RRIRQRPPRLPRPRPRPPQHPRP
  shrunken log2 fold change: 0.718

## RRIRVRPPRLPRPRPRPRFDPRP
  shrunken log2 fold change: 0.048

## RRIRPRPPRLPRPRPRPFNIPRP
  shrunken log2 fold change: -0.293

## RRIRRRPPRLPRPRPRPKTNPRP
  shrunken log2 fold change: 0.221

## RRIRVRPPRLPRPRPRPIKLPRP
  shrunken log2 fold change: -0.486

## RRIRNRPPRLPRPRPRPDSSPRP
  shrunken log2 fold change: -0.00145

## RRIRVRPPRLPRPRPRPLCYPRP
  shrunken log2 fold change: -0.4

## RRIRNRPPRLPRPRPRPIIQPRP
  shrunken log2 fold change: -0.481

## RRIRHRPPRLPRPRPRPYTKPRP
  shrunken log2 fold change: 0.0561

## RRIRIRPPRLPRPRPRPQNEPRP
  shrunken log2 fold change: -0.226

## RRIRPRPPRLPRPRPRPWDKPRP
  shrunken log2 fold change: -0.629

## RRIRCRPPRLPRPRPRPWKEPRP
  shrunken log2 fold change: 0.124

## RRIRWRPPRLPRPRPRPKFNPRP
  shrunken log2 fold change: -0.434
